B1: Yali0C14344: putative Y. lipolytica FDH gene; promoter region SEQ ID NO: 7 (1 Kb) and 23 (1.5 Kb) (nucleic acid, listed as Yarrowia lipolytica)
DNA: ATGAAGGTCCTTCTTGTTCTATACGATGCCGGCTCCCACGCCAAGGATGAGCCAAAGCTACTTGGATGCACCGAGAACGAGCTCGGAATCAGAGACTGGCTCGAGTCACAGGGCCACACTCTTGTCACCACCTCTTCCAAGGACGGTGCCCACTCTGTGCTTGACAAGGAGATTGTCGATGCCGATGTAGTCATCACCACCCCTTTCCACCCCGGCTACATCAACAAGGAGCGAATTGACAAGGCCAAAAAGCTCAAGATCTGCATCACCGCTGGTGTTGGCTCCGACCACGTCGATCTCGACGCAGCCAACGCCCGAGATATCTCTGTTCTTGAGGTTACTGGTTCTAATGTCCAGTCTGTCGCAGAGCACGTCGTTATGACCATGCTGGTGCTGGTCCGAAACTTTGTGCCCGCCCACGAGCAGATCATCGAGGGCGGCTGGAATGTGGCTGCTGTCGCCAAGGACTCGTACGATCTCGAGGGAAAGGTCATTGGCACCGTTGGAGGCGGTCGAATCGGCCAGCGAGTGCTCAAGCGATGCAAGCCCTTTGACCCCATGGAGATGCTCTACTACGACTACCAGGCTATGCCAGCTGATGTGGAGAAGGAGATTGGATGCCGACGAGTCGAGTCTCTGGAGGAGAAGCTCTCTCTCTGTGACGTTGTCACCATCAACTGTCCCCTTCACGCCTCCACCAAGGGTCTCTTCAACAAGGAGCTCATTTCCCACATGAAGGACGGCGCTTGGCTCGTCAACACTGCTCGAGGAGCCATCTGCGTCACCGAGGACATTGTCGACGCTCTCGAGTTGGGCAAGATCCGAGGATATGGCGGTGACGTCTGGTTCCCCCAGCCTGCCTCCAAGGACCACCCCTGGAGAACCATGCGAAATAAGTACGGCGGTGGAAACGCCATGACTCCCCACATCTCCGGCACTTCCATCGACGCCCAGGGCCGATACGCTGAGGGTACCAAGAAGATCCTCGAGGTCTTTTTCTCGGGAAAGCAGAATTACAGACCCCAGGATATCATCTGTATCAACGGCCATTATGGTACAAAGGCCTACGGTGACGACAAGGAGCACAAGGGGCACCAGCAGAAGTGA
modifications: YALI0C14344g
B2: Yali0E14256: Y. lipolytica FDH gene; promoter region SEQ ID NO: 8 (1 Kb) and 24 (1.5 Kb) (nucleic acid, listed as Yarrowia lipolytica)
DNA: ATGAAGATCCTTCTTGTTCTCTACGACGCCGGTTCCCACGCCAAGGATGAGCCTCGACTTCTCGGATGTACCGAGAACGAGCTTGGTCTCCGTGACTGGATCGAGTCCCAGGGACACACCTTGGTGACCACCTCCGACAAGGACGGTGAGAACTCAACCGTCGACAAGGAGATTGTGGATGCTGAGATTGTTATCACCACCCCCTTCCACCCCGCTTACATCACCAAGGAGCGAATTGACAAGGCCAAGAAGCTCAAGATCTGTATCACTGCCGGTGTTGGTTCCGACCATGTCGACCTTGATGCCGCCAACGCCCGAGACATTGCCGTCCTCGAGGTTACCGGATCTAACGTCCAGTCCGTCGCTGAGCACGTTGTCATGACCATGCTGGTTCTGGTCCGAAACTTCGTCCCCGCCCACGAGCAGATCATCGAGGGTGGCTGGAATGTCGCTGCTGTCGCCAAGGACTCTTACGACATTGAGGGTAAGGTCATTGGTACTGTCGGCGGTGGCCGAATTGGTCAGCGAGTCCTGAAGCGACTTGCACCCTTCAACCCCATGGAGCTCCTCTACTACGACTACCAGCCCATGCCCAAGGACGTGGAGAAGGAGATTGGCTGCCGACACGTCCCTGATCTTAAGGAGATGCTCTCTGTCTGTGACATTGTTACCATCAACTGTCCTCTCCACGACTCTACCAAGGGTATGTTCAACAAGGAACTCATCTCCCACATGAAGGATGGTGCTTGGCTCGTCAACACCGCCCGAGGTGCCATCTGTGTCACTGACGACATTGTTGAGGCCCTCAAGTCCGGTAAGATCCGAGGCTACGGTGGTGATGTCTGGAACCCCCAGCCTGCCCCCAAGGACCACCCCTGGAGATACATGCGAAACAAGTGGGGCGGTGGAAACGCCATGACCCCCCATATCTCCGGTACCTCCATCGATGCCCAGGGCCGATACTCCGAGGGTACCAAGAACATTCTCGAGGTCTACTTCTCCGGAAAGCAGAACTACCGACCTCAGGATGTCATCTGTATCAACGGCCACTACGGCACTAAGGCTTACGGTGACGACAAGGAGCACAAGGCCCACGTTTCCAAATAAGCACTTTAGCTGTTTAACTTATAAGCAATTGACTACTAGAATTTGC
modifications: YALI0E14256g
B3: Yali0F15983: putative Y. lipolytica FDH gene; promoter region SEQ ID NO: 3 (1 Kb) and 19 (1.5 Kb) (nucleic acid, listed as Yarrowia lipolytica)
DNA: ATGAAGGTCCTTCTTATTCTCTACTCTGCCGGTTCTCACGCCGTTGACGAGCCCAAGCTACTCGGTTGCACTGAGAACGAGCTCGGTCTCCGAAAGTGGCTCGAGTCCCGGGGCCACACGCTTGTGACCACCTCTTCAAAGGAGGGAGCCGACTCTGTGCTCGACAAGGAGATTGTCGATGCCGACATTGTCATCACTACTCCCTTCCACCCCGGTTACATCACCCGAGAGCGAATCGCCAAGGCCAAGAACCTCAAAATTTGCATCACTGCCGGTGTTGGTTCGGACCACGTCGATCTTGATGCTGCCAACGAGCGAGATATTGCCGTTCTCGAGGTCACTGGCTCCAACGTGCAGTCTGTGGCTGAGCACGTTGTCATGACCATGCTGGTCCTGGTCCGAAACTTTGTGCCTGCCCACGAGCAGGTCATGGCTGGTGGCTGGGACGTTGCTGCTGTCGCCAAGGACTCCTACGACATTGAGGGAAAGGTCATTGGTACTGTGGGAGGTGGCCGAATTGGTCAGCGAGTCCTAAAGCGAGTTGCTCCCTTCAACCCTAAGGAGATGCTCTACTACGACTACCAGGGTCTGTCTGCTGAGACCGAGAAGGAGCTGAACTGCCGACGAGTCGAGAAGCTCGAGGATATGCTTGCCCAGTGTGATATCGTCACCATCAACTGTCCCCTCCACGAGTCCACCAAGGGTCTCTTCAACAAGGAGATGCTCTCTCACATGAAGAAAGGTGCCTGGCTTGTCAACACCGCTCGAGGAGCCATCTGTGTCAAGGAAGACGTTGCTGAGGCTCTCAAGAACGGCCAGCTGCGAGGCTACGGAGGTGACGTCTGGTTCCCCCAGCCTGCTCCCGCTGACCACCCCTGGAGATCCATGCGAAACAAGTACGGAGCTGGAAACGCCATGACCCCCCATATCTCCGGTACTTGCATCGATGCCCAGGTTCGGTACGCCCAGGGAACCAAGAACATTCTCGACATGTTCTTCTCCGGTAAGCAGGACTACCGACCCCAGGACATCATCTGCATCAACGGTCACTACGGAACCAAGGCCTACGGTGATGACAAGGAGCATGCTAAAAAGTAGGCTGGACGTCGAAATAAACACATTGTTCATCTCTGGGTAGCCCAATAGTAAATAGGTAAGCTGTGATCATTA
modifications: YALI0F15983g
B4: Yali0F28765: putative Y. lipolytica FDH gene; its formate-inducible promoter region is SEQ ID NO: 11 (1 Kb) and 27 (1.5 Kb) (nucleic acid, listed as Yarrowia lipolytica)
DNA: ATGAAGGTCCTTCTCATTCTCTACGACGCCGGCTCCCACGCTGTTGATGAGCCCAAACTACTCGGATGCACCGAGAACGAGCTCGGTATCCGATCATGGCTCGAGTCCCAGGGCCATACTCTGGTAACCACCTCTTCCAAGGATGGCGATGACTCTGTCCTCGACAAGGAAATTGTCGACGCCGATGTCGTCATCACCACTCCCTTCCATCCCGGTTACATTACCCGAGAGCGAATTGCCAAGGCCAAGAACCTCAAAATATGTGTTACTGCAGGTGTTGGTTCCGACCATGTCGACCTTGATGCCGCCAACGAGCGAGACATTGCCGTTCTCGAGGTCACTGGTTCCAACGTCCAATCCGTCGCTGAGCACGTCGTCATGACCATGCTCGTCCTCGTCCGAAACTTTGTCCCCGCTCACGAGCAGGTCATGGCTGGTGGTTGGGATGTTGCTGCTGTCGCCAAGGACTCTTATGACATCGAGGGTAAGGTCATTGGTACCGTTGGTGGTGGCCGAATTGGTCAGCGAGTCCTCAAGCGAGTGGCTCCCTTCAACCCTAAGGAGATGCTCTACTACGACTACCAAGGACTTTCTGCTGAGACCGAGCAGGAGCTCAACTGTCGACGAGTCGAGAAGCTTGAAGATATGCTTGCCCAATGTGACATTGTCACCATTAACTGTCCTCTCCACGAGTCTACCAAGGGCCTCTTCAACAAGGAGATGCTCTCTCACATGAAGAAGGGTGCTTGGCTTGTCAACACCGCTCGAGGAGCTATCTGTGTCAAGGAGGATGTCGCCGAGGCTCTTGCCAACGGCCAGCTTCGAGGCTACGGTGGTGATGTGTGGTTCCCTCAGCCAGCCCCTGCCGACCACCCTTGGAGATCGATGCGAAACAAGTACGGCGCCGGTAACGCTATGACCCCACACATATCTGGTACTTCCATTGACGCCCAGGCCCGATACGCCGAGGGCACCAAGAACATTCTCGAGGTCTTCTTCTCCGGAAAGCAGGACTACCGACCCCAGGATATCATCTGTATCAACGGTCACTACGGTACCAAGGCTTACGGCGACGACAAGGAGCACGCCAAGAAATAGATAATATTCATTAACATACAAATACAGTCTACAGTCCTATATCGATTCGGTCGCTTCGAG
modifications: YALI0F28765g

The text below walks through data of patent publication US20230332166A1, “FORMATE-INDUCIBLE PROMOTERS AND METHODS OF USE THEREOF” (Imperial College Innovations Ltd, priority 2020, published 2023).

The data set concerns Y. lipolytica JMY2900. The data set is described as follows: qPCR of putative FDH gene transcription upon induction with sodium formate. The settings on record: YNB with 0.5% sodium formate, 6 h, 28° C., vs absence of formate; qPCR normalised to actin. It is filed as cell-based, Yarrowia lipolytica. The protocol: FIG. 3: Transcription levels of the FDH genes of Yarrowia lipolytica W29 measured by qPCR, normalised to actin (ACT1) expression. Yarrowia lipolytica was grown in YNB supplemented with 1% glucose and 0.5% yeast extract at 15 h at 28° C., before being washed and transferred into YNB with 0.5% of sodium formate for induction and grown for 6 h.
The inducibility of the putative FDH genes with formate was then tested by qPCR. YALI0E14256g1_1 and the nine putative FDH with the highest % identity to YALI0E14256g1_1 were selected for testing. Y. lipolytica JMY2900 was cultured in YNB media supplemented with 1% glucose and 0.5% yeast extract for 15 h at 28° C. Cells were washed with distilled water and cultured in fresh liquid YNB media supplemented with 0.5% sodium formate at 28° C. with agitation at 160 rpm, before being harvested at 6 h post-inoculated. Cells were frozen in liquid nitrogen and stored at −80° C. RNA was subsequently extracted using the RNeasy Mini Kit (Qiagen), and 2 μg was treated with DNAse (Ambion; Life Science Technologies, Saint-Aubain, France). cDNA was synthesised using the Maxima First Strand cDNA synthesis kit (Thermo Fischer Scientific, Villebon sur Yvette, France). qPCR was then performed using the SYBRgreen mastermix (Thermo Fischer Scientific) with gene-specific primers designed using Primer3 software. Relative expression levels were calculated using ΔCT and ΔΔCT methods. Expression levels were normalised to actin.
In general terms: Quantitative PCR measures a nucleic acid by following its amplification.
In the case of B1, the “Fold increase on induction (fold change expression of putative FDH genes upon induction with sodium formate)” value turned out to be 4.9 fold.
Regarding B2, the “Fold increase on induction (fold change expression of putative FDH genes upon induction with sodium formate)” value stood at 23.9 fold.
As to B3, the “Fold increase on induction (fold change expression of putative FDH genes upon induction with sodium formate)” value amounted to 4.2 fold.
Under B4 stands 8.1 fold.
